Laboratory results published in US20070172423A1, “Composition and method for modulating vasculogenesis for angiogenesis” (priority 1998, published 2007).

Experiments:
PDGF alpha receptors = PDGF alpha receptors (Homo sapiens, UniProt P16234); assay: Competition with 125I-PDGF-BB for binding to PAE-1 cells expressing PDGF alpha-receptor; design: expressed in transfected cells; conditions: 5 ng/ml 125I-PDGF-BB tracer, on ice 90 minutes
Procedure: Next, full length and truncated PDGF-C were tested for their capacity to bind to human PDGF receptors alpha and beta by analyzing their abilities to compete with PDGF-BB for binding to PDGF receptors. The binding experiments were performed on porcine aortic endothelial-1 (PAE-1) cells stably expressing the human PDGF receptors alpha and beta (Eriksson et al., EMBO J, 1992, 11, 543-550). Binding experiments were performed essentially as in Heldin et al. (EMBO J, 1988, 7:1387-1393). Different concentrations of human full-length and truncated PDGF-C, or human PDGF-BB were mixed with 5 ng/ml of ^125I-PDGF-BB in binding buffer (PBS containing 1 mg/ml of bovine serum albumin). Aliquots were incubated with the receptor expressing PAE-1 cells plated in 24-well culture dishes on ice for 90 minutes. After three washes with binding buffer, cell-bound 125]-PDGF-BB was extracted by lysis of cells in 20 mM Tris-HCl, pH 7.5, 10% glycerol, 1% Triton X-100. The amount of cell bound radioactivity was determined in a gamma-counter. A standard curve for the binding of ^125I-labeled PDGF BB homodimers to PAE-1 cells expressing PDGF alpha-receptor is shown in FIG. 18.

[1] = tested on: bovine aorta endothelial cells (BAEC); assay: Cell migration assay, BAEC; format: cell-based; conditions: wounded monolayer, 20 hours, serum-free medium
Procedure: (§1) Cell migration assays were performed on growth arrested confluent HMVEC, BAEC or hSMC cells. Cell monolayers were wounded with a rubber policeman and washed with serum-free medium. Dishes were then incubated for 20 hours in serum-free medium containing VEGF165, PDGF-AA, (R&D Systems, Minneapolis USA) or PDGF-CC. Each assay included two dishes per condition and was repeated three times independently. Cells were photographed at 40× magnification, and migration percentage corresponding to the ratio between area of the cells and the total area of the wound (Biocom visiol@b 2000 version 4.52, San Diego). For HMVEC proliferation assay, cells were seeded in 96-well plates (5 wells per condition), and incubated with VEGF, PDGF-AA, or PDGF-CC (50 ng/ml) after serum starvation. After 7 days, viable cells were counted using the cell Titer-glo luminescent cell viability assay. For NIH-3T3 and hSMC proliferation assay, cells cultured in 96-well plates were serum-starved overnight, followed by treatment with growth factors at different concentrations. Two days later, cell numbers were counted and proliferation percentage calculated, using cells cultured in medium containing 10% serum as control. Aortic ring assay was performed as described 51. […] Aortic rings were analysed at day 9 of culturing. […]

[2] = tested on: human microvascular endothelial cells (HMVEC); assay: Cell migration assay, HMVEC; format: cell-based; conditions: wounded monolayer, 20 hours, serum-free medium
Procedure: as §1

Chain of PDGF alpha receptors (P16234 24-1089): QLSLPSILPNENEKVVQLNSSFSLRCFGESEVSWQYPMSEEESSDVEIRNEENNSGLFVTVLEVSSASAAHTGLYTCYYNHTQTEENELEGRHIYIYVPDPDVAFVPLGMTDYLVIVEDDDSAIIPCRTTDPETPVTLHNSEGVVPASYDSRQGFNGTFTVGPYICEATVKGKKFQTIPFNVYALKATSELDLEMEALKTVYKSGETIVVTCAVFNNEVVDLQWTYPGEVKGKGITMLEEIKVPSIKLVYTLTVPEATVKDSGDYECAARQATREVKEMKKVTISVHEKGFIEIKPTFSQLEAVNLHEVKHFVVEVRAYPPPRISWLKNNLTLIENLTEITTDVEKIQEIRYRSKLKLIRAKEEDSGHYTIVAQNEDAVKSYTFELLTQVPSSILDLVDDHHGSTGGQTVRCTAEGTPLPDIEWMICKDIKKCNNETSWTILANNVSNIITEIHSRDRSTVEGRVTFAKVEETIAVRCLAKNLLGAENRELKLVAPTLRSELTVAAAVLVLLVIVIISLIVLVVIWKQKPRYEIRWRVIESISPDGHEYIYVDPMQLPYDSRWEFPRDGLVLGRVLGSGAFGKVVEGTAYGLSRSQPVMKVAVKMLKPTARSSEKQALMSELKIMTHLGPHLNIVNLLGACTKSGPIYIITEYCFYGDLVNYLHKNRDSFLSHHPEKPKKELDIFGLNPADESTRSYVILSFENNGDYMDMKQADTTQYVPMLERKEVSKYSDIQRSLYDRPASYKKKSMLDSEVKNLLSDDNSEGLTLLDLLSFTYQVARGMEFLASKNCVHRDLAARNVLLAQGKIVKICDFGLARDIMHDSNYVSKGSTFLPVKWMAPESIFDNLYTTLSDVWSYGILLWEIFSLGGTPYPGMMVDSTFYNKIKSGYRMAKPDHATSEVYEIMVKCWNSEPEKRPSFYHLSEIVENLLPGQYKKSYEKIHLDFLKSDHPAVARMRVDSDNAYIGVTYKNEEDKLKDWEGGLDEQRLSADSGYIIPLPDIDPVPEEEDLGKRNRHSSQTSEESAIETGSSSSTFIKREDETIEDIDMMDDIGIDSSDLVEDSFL

B1: PDGF-CC: recombinant human PDGF-CC core domain homodimer, residues 230-345 of full-length PDGF-C (SEQ ID NO:40), produced in baculovirus infected insect cells (protein)
chain: GRKSRVVDLNLLTEEVRLYSCTPRNFSVSIREELKRTDTIFWPGCLLVKRCGGNCACCLHNCNECQCVPSKVTKKYHEVLQLRPKTGVRGLHKSLTDVALEHHEECDCVCRGSTGG
modifications: homodimer; PDGF-C core domain
B1 was tested, and the “competition for binding to the PDGF alpha-receptor” value (PDGF alpha receptors) was “efficiently competed”, the “migration of BAEC” value [1] was “enhanced” and the “migration of HMVECs” value [2] was “stimulated”.
